Data published in patent US20230002480A1.

Experiments:
Assay in all cases: cell-based or functional assay
[1] = molecular target: HIV-1 Env of pseudovirus 231966.c02 (HIV-1)
[2] = molecular target: HIV-1 Env of pseudovirus T278-50 (HIV-1)
[3] = molecular target: HIV-1 Env of pseudovirus 3365.v2.c2 (HIV-1)
[4] = molecular target: HIV-1 Env of pseudovirus BJOX028000.10.3 (HIV-1)
[5] = molecular target: HIV-1 Env of pseudovirus 0260.v5.c36 (HIV-1)
[6] = molecular target: HIV-1 Env of pseudovirus BJOX010000.06.2 (HIV-1)
[7] = molecular target: HIV-1 Env of pseudovirus R3265.c06 (HIV-1)
[8] = molecular target: HIV-1 Env of pseudovirus C3347.c11 (HIV-1)
[9] = molecular target: HIV-1 Env of pseudovirus A07412M1.vrc12 (HIV-1)
[10] = molecular target: HIV-1 Env of pseudovirus 3817.v2.c59 (HIV-1)
[11] = molecular target: HIV-1 Env of pseudovirus BJOX025000.01.1 (HIV-1)
[12] = molecular target: HIV-1 Env of pseudovirus CNE8 (HIV-1)
[13] = molecular target: HIV-1 Env of pseudovirus C1080.c03 (HIV-1)
[14] = molecular target: HIV-1 Env of pseudovirus R1166.c01 (HIV-1)
[15] = molecular target: HIV-1 Env of pseudovirus QH0692.42 (HIV-1)
[16] = molecular target: HIV-1 Env of pseudovirus ZM247v1(Rev-) (HIV-1)
[17] = molecular target: HIV-1 Env of pseudovirus HIV-001428-2.42 (HIV-1)
[18] = molecular target: HIV-1 Env of pseudovirus Ce1086_B2 (HIV-1)
[19] = molecular target: HIV-1 Env of pseudovirus SC05_8C11_2344 (HIV-1)
[20] = molecular target: HIV-1 Env of pseudovirus CAAN5342.A2 (HIV-1)
[21] = molecular target: HIV-1 Env of pseudovirus REJO4541.67 (HIV-1)
[22] = molecular target: HIV-1 Env of pseudovirus HIV-16845-2.22 (HIV-1)
[23] = molecular target: HIV-1 Env of pseudovirus 6244_13_B5_4576 (HIV-1)
[24] = molecular target: HIV-1 Env of pseudovirus Ce2010_F5 (HIV-1)
[25] = molecular target: HIV-1 Env of pseudovirus Ce1172_H1 (HIV-1)
[26] = molecular target: HIV-1 Env of pseudovirus 1054_07_TC4_1499 (HIV-1)
[27] = molecular target: HIV-1 Env of pseudovirus HIV-0013095-2.11 (HIV-1)
[28] = molecular target: HIV-1 Env of pseudovirus 6535.3 (HIV-1)
[29] = molecular target: HIV-1 Env of pseudovirus MS208.A1 (HIV-1)
[30] = molecular target: HIV-1 Env of pseudovirus Ce1176_A3 (HIV-1)
[31] = molecular target: HIV-1 Env of pseudovirus WEAU_d15_410_787 (HIV-1)
[32] = molecular target: HIV-1 Env of pseudovirus ZM233M.PB6 (HIV-1)
[33] = molecular target: HIV-1 Env of pseudovirus Q23.17 (HIV-1)
[34] = molecular target: HIV-1 Env of pseudovirus Q769.d22 (HIV-1)
[35] = molecular target: HIV-1 Env of pseudovirus TRO.11 (HIV-1)
[36] = molecular target: HIV-1 Env of pseudovirus CNE53 (HIV-1)
[37] = molecular target: HIV-1 Env of pseudovirus PVO.4 (HIV-1)

Substance: N49P7.2 (antibody)
- IC50 [1]: 0.233 µg/mL
- IC80 [1]: 1.11 µg/mL
- MPI [1]: 100
- IC50 [2]: > 50 µg/mL
- IC80 [2]: > 50 µg/mL
- MPI [2]: 33
- IC50 [3]: 0.066 µg/mL
- IC80 [3]: 0.267 µg/mL
- MPI [3]: 100
- IC50 [4]: 0.322 µg/mL
- IC80 [4]: 1.49 µg/mL
- MPI [4]: 100
- IC50 [5]: 0.644 µg/mL
- IC80 [5]: 1.8 µg/mL
- MPI [5]: 100
- IC50 [6]: 0.267 µg/mL
- IC80 [6]: 1.11 µg/mL
- MPI [6]: 100
- IC50 [7]: 0.153 µg/mL
- IC80 [7]: 0.985 µg/mL
- MPI [7]: 100
- IC50 [8]: 0.047 µg/mL
- IC80 [8]: 0.154 µg/mL
- MPI [8]: 100
- IC50 [9]: 0.768 µg/mL
- IC80 [9]: 2.32 µg/mL
- MPI [9]: 100
- IC50 [10]: 9.83 µg/mL
- IC80 [10]: > 50 µg/mL
- MPI [10]: 68
- IC50 [11]: 0.102 µg/mL
- IC80 [11]: 0.831 µg/mL
- MPI [11]: 100
- IC50 [12]: 0.073 µg/mL
- IC80 [12]: 0.24 µg/mL
- MPI [12]: 100
- IC50 [13]: 0.279 µg/mL
- IC80 [13]: 1.76 µg/mL
- MPI [13]: 100
- IC50 [14]: 0.267 µg/mL
- IC80 [14]: 0.852 µg/mL
- MPI [14]: 100

Substance: N49P11 (antibody)
- IC50 [1]: 4.31 µg/mL
- IC80 [1]: 16 µg/mL
- MPI [1]: 100
- IC50 [2]: 7.63 µg/mL
- IC80 [2]: 25.1 µg/mL
- MPI [2]: 100
- IC50 [3]: 0.064 µg/mL
- IC80 [3]: 0.452 µg/mL
- MPI [3]: 100
- IC50 [4]: 5.33 µg/mL
- IC80 [4]: 46.7 µg/mL
- MPI [4]: 100
- IC50 [5]: 0.438 µg/mL
- IC80 [5]: 1.47 µg/mL
- MPI [5]: 100
- IC50 [6]: 6.81 µg/mL
- IC80 [6]: 21.8 µg/mL
- MPI [6]: 100
- IC50 [7]: 0.161 µg/mL
- IC80 [7]: 0.971 µg/mL
- MPI [7]: 100
- IC50 [8]: 0.055 µg/mL
- IC80 [8]: 0.192 µg/mL
- MPI [8]: 100
- IC50 [9]: 2.52 µg/mL
- IC80 [9]: 12.9 µg/mL
- MPI [9]: 100
- IC50 [10]: 4.72 µg/mL
- IC80 [10]: 15.9 µg/mL
- MPI [10]: 100
- IC50 [11]: 0.361 µg/mL
- IC80 [11]: 2.58 µg/mL
- MPI [11]: 100
- IC50 [12]: 0.165 µg/mL
- IC80 [12]: 1.24 µg/mL
- MPI [12]: 100
- IC50 [13]: 0.162 µg/mL
- IC80 [13]: 1.45 µg/mL
- MPI [13]: 100
- IC50 [14]: 0.06 µg/mL
- IC80 [14]: 0.336 µg/mL
- MPI [14]: 100

Substance: VRC07 (antibody)
- neutralization IC50 [15]: 0.5 µg/mL
- neutralization IC80 [15]: 1.86 µg/mL
- neutralization IC50 [16]: 0.041 µg/mL
- neutralization IC80 [16]: 0.189 µg/mL
- neutralization IC50 [17]: 0.004 µg/mL
- neutralization IC80 [17]: 0.016 µg/mL
- neutralization IC50 [18]: 0.128 µg/mL
- neutralization IC80 [18]: 0.84 µg/mL
- neutralization IC50 [19]: 0.133 µg/mL
- neutralization IC80 [19]: 0.401 µg/mL
- neutralization IC50 [20]: 0.307 µg/mL
- neutralization IC80 [20]: 1.05 µg/mL
- neutralization IC50 [21]: 0.011 µg/mL
- neutralization IC80 [21]: 0.037 µg/mL
- IC50, titer in TZM.bl cells [1]: 0.105 µg/mL
- IC80, titer in TZM.bl cells [1]: 0.471 µg/mL
- IC50, titer in TZM.bl cells [2]: > 50 µg/mL
- IC80, titer in TZM.bl cells [2]: > 50 µg/mL
- neutralization IC50 [3]: 0.038 µg/mL
- neutralization IC80 [3]: 0.109 µg/mL
- IC50, titer in TZM.bl cells [4]: 0.011 µg/mL
- IC80, titer in TZM.bl cells [4]: 0.069 µg/mL
- neutralization IC50 [22]: 1.21 µg/mL
- neutralization IC80 [22]: 6.15 µg/mL
- neutralization IC50 [23]: 0.065 µg/mL
- neutralization IC80 [23]: 0.23 µg/mL
- neutralization IC50 [24]: 0.131 µg/mL
- neutralization IC80 [24]: 0.48 µg/mL
- neutralization IC50 [5]: 0.448 µg/mL
- neutralization IC80 [5]: 1.62 µg/mL
- neutralization IC50 [25]: > 50 µg/mL
- neutralization IC80 [25]: > 50 µg/mL
- IC50, titer in TZM.bl cells [6]: 1.06 µg/mL
- IC80, titer in TZM.bl cells [6]: 10 µg/mL
- neutralization IC50 [26]: 0.239 µg/mL
- neutralization IC80 [26]: 1.46 µg/mL
- neutralization IC50 [27]: 0.017 µg/mL
- neutralization IC80 [27]: 0.057 µg/mL
- IC50, titer in TZM.bl cells [8]: 0.06 µg/mL
- IC80, titer in TZM.bl cells [8]: 0.38 µg/mL
- IC50, titer in TZM.bl cells [9]: 0.11 µg/mL
- IC80, titer in TZM.bl cells [9]: 0.353 µg/mL
- neutralization IC50 [28]: 0.169 µg/mL
- neutralization IC80 [28]: 0.517 µg/mL
- IC50, titer in TZM.bl cells [10]: 1.9 µg/mL
- IC80, titer in TZM.bl cells [10]: 19.8 µg/mL
- neutralization IC50 [29]: 0.12 µg/mL
- neutralization IC80 [29]: 0.425 µg/mL
- neutralization IC50 [30]: 0.52 µg/mL
- neutralization IC80 [30]: 2.6 µg/mL
- IC50, titer in TZM.bl cells [11]: 0.279 µg/mL
- IC80, titer in TZM.bl cells [11]: 2.29 µg/mL
- neutralization IC50 [31]: 0.034 µg/mL
- neutralization IC80 [31]: 0.115 µg/mL
- neutralization IC50 [32]: 0.152 µg/mL
- neutralization IC80 [32]: 0.625 µg/mL
- neutralization IC50 [33]: 0.081 µg/mL
- neutralization IC80 [33]: 0.236 µg/mL
- neutralization IC50 [34]: 0.018 µg/mL
- neutralization IC80 [34]: 0.087 µg/mL
- neutralization IC50 [35]: 0.132 µg/mL
- neutralization IC80 [35]: 0.456 µg/mL
- IC50, titer in TZM.bl cells [12]: 0.45 µg/mL
- IC80, titer in TZM.bl cells [12]: 1.56 µg/mL
- IC50, titer in TZM.bl cells [13]: 2.03 µg/mL
- IC80, titer in TZM.bl cells [13]: 8.25 µg/mL
- neutralization IC50 [36]: 0.031 µg/mL
- neutralization IC80 [36]: 0.086 µg/mL
- neutralization IC50 [37]: 0.063 µg/mL
- neutralization IC80 [37]: 0.226 µg/mL
- IC50, titer in TZM.bl cells [14]: 0.81 µg/mL
- IC80, titer in TZM.bl cells [14]: 3.17 µg/mL
